Laboratory results reported in publication PMC8993412 (Journal of Molecular Biology, 2022).

Assays:
[1] = molecular target: SARS-CoV-2 Nsp12 (recombinant) (SARS-CoV-2, reference, UniProt P0DTD1); assay: western blot
[2] = molecular target: Nsp12 in SARS-CoV-2-infected VeroE6 cells (SARS-CoV-2 USA-WA1/2020, UniProt P0DTD1); assay: immunostaining of cells or tissue
[3] = molecular target: SARS-CoV-2 Nsp1, full-length protein (recombinant) (SARS-CoV-2, reference, UniProt P0DTD1); assay: ELISA
[4] = molecular target: Nsp1 in SARS-CoV-2-infected VeroE6 cells (SARS-CoV-2 USA-WA1/2020, UniProt P0DTD1); assay: immunostaining of cells or tissue

B1: IgG 15884 (anti-Nsp12) (antibody, V domains shown)
VH: EVQLVESGGGLVQPGGSLRLSCAASGFNIYYYSMHWVRQAPGKGLEWVASIYSYYGYTSYADSVKGRFTISADTSKNTAYLQMNSLRAEDTAVYYCARHPAYGGMDYWGQGTLVTVSS
VL: DIQMTQSPSSLSASVGDRVTITCRASQSVSSAVAWYQQKPGKAPKLLIYSASSLYSGVPSRFSGSRSGTDFTLTISSLQPEDFATYYCQQSHWHPITFGQGTKVEIK
binding result [1]: binds | binding result [2]: binds

B2: Fab 15498 (Fab-phage clone) (Fab, V domains shown)
VH: EVQLVESGGGLVQPGGSLRLSCAASGFNISSSSMHWVRQAPGKGLEWVAAVASFYGATYYADSVKGRFTISADTSKNTAYLQMNSLRAEDTAVYYCARAYHAGLDYWGQGTLVTVSS
VL: DIQMTQSPSSLSASVGDRVTITCRASQSVSSAVAWYQQKPGKAPKLLIYSASSLYSGVPSRFSGSRSGTDFTLTISSLQPEDFATYYCQQWYYYSAAVTFGQGTKVEIK
binding result [3]: binds

B3: IgG 15497 (anti-Nsp1) (antibody, V domains shown)
VH: EVQLVESGGGLVQPGGSLRLSCAASGFNFSSSSIHWVRQAPGKGLEWVASISSSYGYTYYADSVKGRFTISADTSKNTAYLQMNSLRAEDTAVYYCARWAAMDYWGQGTLVTVSS
VL: DIQMTQSPSSLSASVGDRVTITCRASQSVSSAVAWYQQKPGKAPKLLIYSASSLYSGVPSRFSGSRSGTDFTLTISSLQPEDFATYYCQQYYSLITFGQGTKVEIK
binding result [4]: binds

B4: Fab 15497 (Fab-phage clone) (Fab, V domains shown)
VH: EVQLVESGGGLVQPGGSLRLSCAASGFNFSSSSIHWVRQAPGKGLEWVASISSSYGYTYYADSVKGRFTISADTSKNTAYLQMNSLRAEDTAVYYCARWAAMDYWGQGTLVTVSS
VL: DIQMTQSPSSLSASVGDRVTITCRASQSVSSAVAWYQQKPGKAPKLLIYSASSLYSGVPSRFSGSRSGTDFTLTISSLQPEDFATYYCQQYYSLITFGQGTKVEIK
binding result [3]: binds
